Experiment: yeast display, Sf9 membrane polyspecificity reagent, FACS + sequencing; frameworks hold sequencing errors
In short: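 Sorting gates, low and high (top ~1%), were placed on anti-HA fluorescence to track expression and on streptavidin fluorescence to track reagent binding. A clone's polyreactivity label is taken from the gate it came out of. The reagent was 10% biotinylated, detergent-solubilized Sf9 membrane, applied for 1 hour at 4 °C to galactose-induced yeast display cells.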

Sequence	polyreactivity (PSR sort gate)
QDQLVESGGGLVQAGGSLRLICAASGMGWFRQAPGKEREFVAVIRWSSGSTYYADSVKGRFTISRDNAKNTVYLQMNSLKPEDTAVYYCAAGGYPSLLHDYDYWGQGTQVTVSS	low polyreactivity
QDQLVESGGGLVQAGGSLRLICDASGSILWHYAMGWYRQAPGTEREWVAAITQRGGSTYYADSEKGRFTISRDTAKYNVYLQMNSLKPEDTAVYYFNTYPTRTYPSYYYWRQGTQVTVSS	high polyreactivity
QDQLVESGGGLVQAGGSLRLRCAASGLILANYAMGCYRPAPVKERELVAAISSSGGSKYYADSVKGRFTISRDNAKHTVYFQMNSLKPEDTAVYDCAAYPLYRRRWTGDYWGQGTQVTVSS	high polyreactivity
QDQLVESGGGLVQAGGSLRLSCAASASTFPYNPMGRYRQAPRKERELVAAITATDDSTYYADSVKGRFTISRDNAKNTVYLQMNSLKPEDTAVYYCAADFGGYVFYFGYDYWGQGTQVTVSS	low polyreactivity
QDQLVESGGGLVQAGGSLRLSCAASGFIFAYNAMGWYRQGPGKESELVAGITWNGGSTYYADSVKGRFTISRDNAKNSVYLQMNRLKPEETAVYYCAARRTWGYIYRLGYGMDYWGQGTQVTVSS	high polyreactivity
QDQLVESGGGLVQAGGSLRLSCAASGFIFDLYAMGWYRQAPGKERELVAVISYDGGSTYYADSVKGRFTISRDNAKNTVYLQMNSLKPVDTAVYYCNTYAGLVSPSDLYDYWGQGTQVTVSS	low polyreactivity
QDQLVESGGGLVQAGGSLRLSCAASGFIFDQYAMGWYRQPPGKERELVAAITSGGDTNYADSVKGRFTISRDNAKNTVYLQMNSLKPEDTAVYYCNAAARGSSFDYWGQGTQVTVSS	low polyreactivity
QDQLVESGGGLVQAGGSLRLSCAASGFIFGLNAMGWYRQAPGKERELVASISRRCGSTYYAYSVKGRFTISRDNAKNTVYLQMNSLKPEDTAVYYCASDTLGGTSLGDYWGQGIQVTVSS	high polyreactivity
QDQLVESGGGLVQAGGSLRLSCAASGFIFGTYAMGWYRQAPGKEREFVAAINWGGGRTYYADSVKGRFTISRDNAKNTVYLQMNSLKPEDTAVYYCAADFGLYYPRYGYWGQGTQVTVSS	high polyreactivity
QDQLVESGGGLVQAGGSLRLSCAASGFIFNYYGMGWYRQAPGKERELVATISRGASTNYADSVKGRFTISRDNAKNTVYLQMNSLKPEDTAVYYCAKDYGDWGQGTQVTVSS	low polyreactivity
QDQLVESGGGLVQAGGSLRLSCAASGFIFSQYAMGWYRHAPGKERELVAAISTSGGSTYYADSVKGRFTISRDNAKNTVYLQMNSLKPEDTAVYYCAAARITRGRRYDYWGQGTQVTVSS	high polyreactivity
QDQLVESGGGLVQAGGSLRLSCAASGFILNWYAMGVYRQAPGKERELVAAISWTTSDTYYADSVKGRFTISRDYAKNTVYLQMNSLKPEDTAVYYCNAKFYAYYVTFVLHYDYWGHGTQVTVSS	low polyreactivity
QDQLVESGGGLVQAGGSLRLSCAASGFTFRANAMGWYRQAPGKERELVAAISSGGRTNYADSVKGRFTISRDNAKNTVYLQMNSLKTEDTAVYYCAAAPSKWYYGYGYWGQGTQVTVSS	high polyreactivity
QDQLVESGGGLVQAGGSLRLSCAASGFTFSRYAMGWYRQAPGKERELVAAINYSGGSTYYADSVKGRFTISRDNAKNTVYLQMNSLKPEDTAVYYCATGGTKPAYKGHYYWGQGTQVTVSS	low polyreactivity
QDQLVESGGGLVQAGGSLRLSCAASGFTFVINDMGWYRQAPGKERELVADITSGGDTYYADSVKGRFTISRDNAKNTDYLQMNSLKPEDTAVYYCAADIYPDWIYLLYGYWGQGTQVTVSS	low polyreactivity
QDQLVESGGGLVQAGGSLRLSCAASGFTFVINDMGWYRQAPGKEREMVADITSGGDTYYADSVKGRFTISRDNAKNTVDLQMNSLKPEDTAVYYCAADIYPDWIYLLYGYWGQGTQVSVSS	low polyreactivity
QDQLVESGGGLVQAGGSLRLSCAASGFTFYAYAMGWYRQAPGKERELVAAITGRGGSTYYADSVKGRFTISRDNAKNTVYLPLNSLKPEDTAVYDCNKVKKSDKFNTVSNDYWGQGTQVTVSS	high polyreactivity
QDQLVESGGGLVQAGGSLRLSCAASGFTISSYARGWYRQAPGKERELVAAISTRGGSTYYADSVKGRFTISRDNSKNTVYLQMNSLKPEDTAVSYCATGGRGGRRYEYWGQGTQVTVSS	low polyreactivity
QDQLVESGGGLVQAGGSLRLSCAASGGIFLYYSMGWYRQAPGKERELVAAISRGGGRTYYADSVKGRFTISRDNAKNTVYLHMNSLKPEDTAVYYCAVEYGTGYQWWEYYYWGQGTQVTVSS	high polyreactivity
QDQLVESGGGLVQAGGSLRLSCAASGGIFPVNALGWYRQAPVKERELVATITYDGGNTYYADSVKGRFTISRDNAKKTVYLQMNSLKREDTAVYYCAKDSLSFYGYISYIGYGYDYWGQGTQVTVSS	low polyreactivity
QDQLVESGGGLVQAGGSLRLSCAASGGTFLTYAMGWYRQAPGKERELVAAISSGGSTYYADSVKGRFTISRDNAKNTVYLQMNSLKPEDTAVYYCNADPYSRFWGPDYGYWGQGTQVTVSS	low polyreactivity
QDQLVESGGGLVQAGGSLRLSCAASGIFPYYAMGGYRQAPGTEREFVAAITRSGGSTYYADSVKGRFTISRDNAKKTVYLQMNSLKPEDTAVYYCNKRYGYTGFSPRYDYWGQGTQVTVSS	low polyreactivity

Sequence	polyreactivity (PSR sort gate)
QDQLVESGGGLVQAGGSLRLSCAASGITFFVYDMGWYRQAPGTERELVAAITWSGDSTYYADSVKGRFTISRDNAKNTVYLQMNSLKPEDTAVYYCAAQFDVYYSRQPYDYNRSGYWGQGTQVTVSS	low polyreactivity
QDQLVESGGGLVQAGGSLRLSCAASGITVDGYAMGWYRQAPGKDRELVAAITTSGGRTYYADSVKGRFTISRDNAKNTVYLQMNSLKPEHTADYYCNAVRGGRYGLDYWGQGTQVTVSS	high polyreactivity
QDQLVESGGGLVQAGGSLRLSCAASGLILHKYAMGWYRQAPGKERELVASINSGANTNYADSVKGRFTISRDNAKNTLYLHLNSLKPEDTAVYYCAADWQQLSYVWRSQRRYNYWGQGTQVTVSS	low polyreactivity
QDQLVESGGGLVQAGGSLRLSCAASGLTFPEYAMGWYRQAPGKERELVAAITWSGATTYYADSVKGRFTISRDNAKNTVYLQMNSLKPEDTAVYYCAAEYTVYNTALPGYYFTYYYWGQGTQVTVSS	high polyreactivity
QDQLVESGGGLVQAGGSLRLSCAASGLTFYTYAMGWYRPAPGKERELVAAIRWRGGRTYYADSVKGRFTISRDNAKNTVYLLMNSLKPEDTAVYYCAADYSTLYKYDYWGQGTQVTVSS	low polyreactivity
QDQLVESGGGLVQAGGSLRLSCAASGNTFRYYALGGYRQAPGKERELVATITSGGRTYYADSVKGRFTISRDNAKNTVYLQMNSLKPEDTAVHYGAAVGLDYFVGEYDYWGQGTQVTVSS	low polyreactivity
QDQLVESGGGLVQAGGSLRLSCAASGNTFVSNAMGWYRQAPGKERELVAAIDSGGSTNYADSVKGRFTISRDNAKYTVYLQMNSLKPEDTAVYYCNRTSVYYYYWGQGTQVTVSS	low polyreactivity
QDQLVESGGGLVQAGGSLRLSCAASGPIFRSYAMGWYRQAPGKEMELVAAISRSGGSTYYADSVKGRFSISRDNAKNSVYLHMNSLKPEDSAVYYCAADYILLGGRRKFDSWGQGTQVTVSS	low polyreactivity
QDQLVESGGGLVQAGGSLRLSCAASGRIFAGYAMGWYRQAPGKERELVATISSGGSTYYADSVKGRFTISRDNAKNTVYLQMHSLKPEDTAVYYCAAEYGTRQYSSYYKLFNYWGQGTQVTVSS	low polyreactivity
QDQLVESGGGLVQAGGSLRLSCAASGRIFGSYAMGWYRQAPGKERELVAAISIGGRTYYADSVKGRFTISRDNAKNTVYLQMNSLKPEDTAVYYCNAPAYYWRHYVYDSGYDYWGQGTQVTVSS	low polyreactivity
QDQLVESGGGLVQAGGSLRLSCAASGRIFGYYTMGWSRPAPGKERELVAGITRRGGRTYYADSVKGRFTISRDNAKNTVYLQMNSLKPEDTGVYYCAVRSGVNFYYWGQGTQVTVSS	high polyreactivity
QDQLVESGGGLVQAGGSLRLSCAASGRIFGYYVMGWYRQAPGKERELVAAISGSGGSTYYADSVKGRFTISRDNAKNTVYLQMNSLKPEDTAVYYCNKRATRSRRRGYWGQGTQVTVSS	low polyreactivity
QDQLVESGGGLVQAGGSLRLSCAASGRIFHGNAMGWYRQARGKEWELVAAISRRGGSTYSADSVKGRFTISRDNAKNTVYLQMNSLKPEDTAVYYCAAVWPYGSRGAPMDYWGQGTQVTVSS	high polyreactivity
QDQLVESGGGLVQAGGSLRLSCAASGRIFPYYAMGRYRQAPGKERELVASISGSGGRTYYADSVKGRFTISRDNAKNTVSLQMNSLKPEDTAVYYCAAYWYKVPGKYGYWGQGTQVTVSS	high polyreactivity
QDQLVESGGGLVQAGGSLRLSCAASGRIFQGYAMGWYRQAPGKERELVAAITLSGGSTYYADSVKGRFTISRDNAKNTVYLQMNSLKPEDTAVYYCNAYYPDEPSLYDYWGQGTQVTVSS	low polyreactivity
QDQLVESGGGLVQAGGSLRLSCAASGRIFRGNAMGWYRQAPGKEREMVAAISRRSGSTYYADSVKGRFTISRDNAKNTVYLQMNSLKPEDTAVYYCAATSSLGDFRYDYWGQVTQVTVSS	high polyreactivity
QDQLVESGGGLVQAGGSLRLSCAASGRIFRGYAMGWYRQAHGKERELVAVISYSGTRTYYADSVKGRFTISRDNAKNTVYIQMNSLKPEDTAVYYCNARANGFKDGYWGEGTQVTVSS	high polyreactivity
QDQLVESGGGLVQAGGSLRLSCAASGRIFRSYAMGWYRQAPGKERELVAAINTGGITYYADSVKGRFTISRDNAKNTVYLQMNSLKPEDTAVYYCNTYILSRMNYWGQCTQVTVSS	high polyreactivity
QDQLVESGGGLVQAGGSLRLSCAASGRIFSRNAMGWYRQAPGKERELVAAITWRGGSTYYADSVKGRFTISRDNAKNTVYLQMTSLKPEDTAVYYCNRDYRQYGYAYSGRYYWGLGTQVTVSS	high polyreactivity
QDQLVESGGGLVQAGGSLRLSCAASGRIFVPYSKGWYRQATGKERELVAAISLRGGTTYYSDSVKGRFTISRDNAKNTVYLQMNSLKPEDTAVYYCAARGYVSVWRPYHWFVAGDYWGQGTQVTVSS	high polyreactivity
QDQLVESGGGLVQAGGSLRLSCAASGRIFYPNAMGWYRQAPGKERELVASISRGGPTSYADSVKGRFTISRDNAKNTVYLQMNSLKPEDTAVYYCAADVAWYRYRSYYWGQGTQVTVSS	high polyreactivity
